Results reported in patent US7022815 (GENERAL HOSPITAL, dated 2006).
“And” between values parts separate entries of the source, which are not always exact repeats. Equal entries are not always repeated. Non-standard residues stand in square brackets, D forms with d. No end group written: not given here. Nle = CCCC[C@H](N)C(=O)O

T1: rat PTH-1 receptor (rat, UniProt P25961 27-591)
T1 sequence (looked up): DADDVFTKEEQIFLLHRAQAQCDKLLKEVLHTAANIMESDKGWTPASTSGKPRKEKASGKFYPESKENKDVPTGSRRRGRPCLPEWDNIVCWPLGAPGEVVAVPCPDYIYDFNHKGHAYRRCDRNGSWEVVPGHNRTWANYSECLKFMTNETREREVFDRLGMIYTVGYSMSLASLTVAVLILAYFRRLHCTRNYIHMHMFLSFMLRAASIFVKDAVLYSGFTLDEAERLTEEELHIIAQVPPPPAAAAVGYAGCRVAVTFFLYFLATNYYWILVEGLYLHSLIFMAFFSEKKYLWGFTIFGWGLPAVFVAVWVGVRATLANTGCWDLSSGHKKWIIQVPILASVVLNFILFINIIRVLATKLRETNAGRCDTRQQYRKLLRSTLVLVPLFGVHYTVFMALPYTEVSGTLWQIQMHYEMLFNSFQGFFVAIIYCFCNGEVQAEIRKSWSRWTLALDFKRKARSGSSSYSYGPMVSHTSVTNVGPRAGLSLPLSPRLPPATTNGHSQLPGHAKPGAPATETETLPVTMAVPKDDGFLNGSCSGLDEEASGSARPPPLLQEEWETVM

T2: human PTH-1 receptor (human, UniProt Q03431 27-593)
T2 sequence (looked up): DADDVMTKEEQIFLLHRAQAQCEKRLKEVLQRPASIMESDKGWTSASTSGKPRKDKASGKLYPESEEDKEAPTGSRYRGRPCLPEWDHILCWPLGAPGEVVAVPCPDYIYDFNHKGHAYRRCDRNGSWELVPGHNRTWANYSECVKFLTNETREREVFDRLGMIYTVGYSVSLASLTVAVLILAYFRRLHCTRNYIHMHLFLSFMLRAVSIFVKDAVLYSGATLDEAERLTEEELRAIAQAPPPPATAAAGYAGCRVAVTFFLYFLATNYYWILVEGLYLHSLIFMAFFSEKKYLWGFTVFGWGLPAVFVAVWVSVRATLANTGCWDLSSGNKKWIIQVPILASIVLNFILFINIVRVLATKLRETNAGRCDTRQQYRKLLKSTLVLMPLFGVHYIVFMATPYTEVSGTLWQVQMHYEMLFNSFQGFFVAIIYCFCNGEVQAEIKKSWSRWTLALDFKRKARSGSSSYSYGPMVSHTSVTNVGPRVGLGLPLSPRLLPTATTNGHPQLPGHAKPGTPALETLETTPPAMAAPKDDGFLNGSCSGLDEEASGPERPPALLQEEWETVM


Legend:
rat PTH-1 receptor = molecular target: T1, rat PTH-1 receptor; test: cell-based or functional assay
human PTH-1 receptor [1] = molecular target: T2, human PTH-1 receptor; test: cell-based or functional assay
human PTH-1 receptor [2] = molecular target: T2, human PTH-1 receptor; test: cell-based or functional assay; remark: listed apart in the source
human PTH-1 receptor [3] = molecular target: T2, human PTH-1 receptor; test: cell-based or functional assay; remark: listed apart in the source
[4] = molecular target: truncated human PTH-1 receptor hDelNt (human), Q03431; test: cell-based or functional assay
human PTH-2 receptor = human PTH-2 receptor (human, UniProt P49190 25-550); test: cell-based or functional assay
human PTH-1 receptor [5] = molecular target: T2, human PTH-1 receptor; test: competition binding on HKRK-B7 cells, 125I-rPTH(1-34) tracer displaced by varying doses of unlabeled peptide
Procedure: Binding reactions were performed with stably transfected HKRK-B7 cells in 24-well plates. […] Incubations (final volume=300 µL) were at 15° C. for 4 h. Cells were then placed on ice, the binding medium was removed, and the monolayer was rinsed three times with 0.5 mL of cold binding buffer. The cells were subsequently lysed with 0.5 mL 5N NaOH and counted for radioactivity. The non-specific binding for each experiment was determined by competition with a 1 µM dose of unlabeled rPTH(1–34). The maximum specific binding (B_0) was the total radioactivity bound in the absence of unlabeled PTH ligand, corrected for nonspecific binding. Binding $IC50$ values were determined using nonlinear regression (see below).
To determine if these substitutions could enhance the activity of PTH(1–34), the substitutions of Ser3→Ala, Asn10→Ala, Leu11→Arg and Gly12→Ala were introduced into the analog [Ala1,Tyr34]hPTH(1–34) to yield peptide #7.

human PTH-1 receptor [6] = molecular target: T2, human PTH-1 receptor; test: cell-based or functional assay; remark: listed apart in the source

human PTH-2 receptor, sequence (P49190 25-550): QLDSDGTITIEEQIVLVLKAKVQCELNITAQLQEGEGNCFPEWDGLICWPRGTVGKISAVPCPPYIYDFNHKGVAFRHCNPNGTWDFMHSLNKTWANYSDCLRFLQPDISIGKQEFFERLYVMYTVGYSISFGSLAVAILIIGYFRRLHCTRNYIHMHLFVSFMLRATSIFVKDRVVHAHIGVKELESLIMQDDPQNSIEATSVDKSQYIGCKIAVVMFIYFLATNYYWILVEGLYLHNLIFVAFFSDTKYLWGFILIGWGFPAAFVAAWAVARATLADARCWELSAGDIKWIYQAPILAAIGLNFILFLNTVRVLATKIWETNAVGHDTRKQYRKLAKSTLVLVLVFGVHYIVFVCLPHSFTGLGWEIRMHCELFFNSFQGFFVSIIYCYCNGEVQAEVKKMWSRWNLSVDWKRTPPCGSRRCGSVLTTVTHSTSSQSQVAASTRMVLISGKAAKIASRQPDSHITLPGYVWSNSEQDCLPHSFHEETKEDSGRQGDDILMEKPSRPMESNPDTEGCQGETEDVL

Binder | cAMP EC50, ROS 17/2.8 cells (rat PTH-1 receptor) | cAMP Emax, ROS 17/2.8 cells (rat PTH-1 receptor) [picomole/well] | cAMP Emax, SAOS-2 cells (human PTH-1 receptor [1]) [picomole/well] | cAMP EC50, COS-7 cells with WT hPTH-1 receptor (human PTH-1 receptor [2]) | cAMP Emax, COS-7 cells with WT hPTH-1 receptor (human PTH-1 receptor [2]) [picomole/well] | cAMP EC50, HKRK-B7 cells (human PTH-1 receptor [3]) | cAMP Emax, HKRK-B7 cells (human PTH-1 receptor [3]) [picomole/well] | cAMP Emax, COS-7 cells with hDeINt (picomole/well) [4] | cAMP EC50, LLC-P2R-22 cells (human PTH-2 receptor) | cAMP Emax, LLC-P2R-22 cells (human PTH-2 receptor) [picomole/well] | cAMP EC50, SAOS-2 cells (human PTH-1 receptor [1]) | cAMP potency against native PTH(1-14) [4] [fold] | fold improvement in binding affinity, as compared to rPTH(1-34) (human PTH-1 receptor [5]) [fold] | cAMP potency against controls, HKRK-B7 cells (human PTH-1 receptor [6]) [fold] | cAMP potency against native PTH(1-14) (human PTH-1 receptor [6]) [fold]
SVSEIQLMHNLGKHLNSMERVEWLRKKLQDVHNY-NH2 [[Tyr^34]human (h)PTH(1-34)NH2] | -9.6 Log M and 0.0003 µM | 340 | 307 | -9.3 Log M | 226 | -8.4 Log M | 270 | 238 | – | – | – | – | – | – | –
AVAEIQLMHARA-NH2 [[A3, A10, R11, A12]rPTH(1-12)] | – | – | – | – | – | -5 Log M and 10.2 µM | 238 | – | -3.5 Log M and 342 µM | 501 | – | – | – | – | –
AVAEIQLMHARAKH-NH2 [[A3, A10, R11, A12]rPTH(1-14)] | -5.2 Log M and 7.3 µM | 395 | 331 | -6 Log M and 4.66 µM | 243 | -6.1 Log M and 0.83 µM | 264 | 250 | -3.9 Log M and 126 µM | 292 | 12.7 µM and -4.9 Log M | 100 | – | – | –
AVAEIQLMHQRAKH-NH2 [[A3, Q10, R11, A12]rPTH(1-14)] | – | – | – | – | – | -6.1 Log M and 0.8 µM | 235 | – | – | – | – | – | – | – | –
AVAEIQLMHARAKHLNSMERVEWLRKKLQDVHNY-NH2 (also called peptide #7; #7) [[A1, A3, A10, R11, A12, Y34]hPTH(1-34)] | -9.6 Log M and 0.0002 µM | 395 | 272 | -3.5 Log M and 313 µM | 222 | -8.8 Log M and 0.0016 µM | 244 | 251 | -7.7 Log M and 0.0192 µM | 677 | 0.00011 µM and -9.95 Log M | – | ~2 | ~2 | –
AVAEIQLMHARAK-NH2 [[A3, A10, R11, A12]rPTH(1-13)] | – | – | – | – | – | -5.6 Log M and 2.4 µM | 239 | – | -4 Log M and 106 µM | 501 | – | – | – | – | –
AVAEIQLMHAR-NH2 [[A3, A10, R11]rPTH(1-11)] | 133 µM and -3.9 Log M | 377 | 235 | -4.6 Log M and 29.1 µM | 238 | -4.8 Log M and 17.1 µM | 248 | 243 | – | – | 94.7 µM and -4.12 Log M | – | – | – | –
AVAEIQLMHARAKW-NH2 [[A3, A10, R11, A12, W14]rPTH(1-14)] | 3.4 µM | 382 | – | – | – | -6.3 Log M and 0.6 µM | 262 | – | – | – | – | – | – | – | 220
AVSEIQL[Nle]HNLGKHLASVER[Nle]QWLRKKLQDVHNY-NH2 [[Nle^8,21,Tyr^34]-rPTH(1-34)NH2] | -9.5 Log M and 0.0003 µM | 364 | 272 | -9.2 Log M and 0.0007 µM | 226 | -8.6 Log M and 0.0033 µM | 293 | 243 | -8.4 Log M and 0.0044 µM | 744 | -9.75 Log M and 0.00018 µM | – | – | – | –
AVSEIQLMHNLGKH-NH2 [native rPTH(1-14)] | -3.4 Log M and 449 µM | 376 | – | -3.8 Log M and 152 µM | 221 | -3.9 Log M and 133 µM | 299 | 222 | – | – | – | – | – | – | –
